Measured values taken from the DeepSol protein solubility set.

Assay: soluble on expression in E. coli; label from the status in PepcDB or PDB records

| Sequence | soluble on expression in E. coli |
| --- | --- |
| MAHHHHHHMLSTTDGTTSTLSPERTAVIELHTSASYARDTVHRLREYCNSLEATRQQLRRRLSSVPNSHNVSAVALSRARSPSSLSHLHGQAPLPPLAAAAPTLSRPFFTSEYIDPEVDATLQDVDETTALETMIVLHEDGAGTITKRMIDGSQSCISSLAVHSSSPQSQRPAATTASLLAIHSPTPVAENGTSWARQYSPLALRRMKPQQLLSHYLRDTHNAMVIADEPRAHRHSSSLCTNASSSCCVPVVRLGKPMRSASASLWNASDVNMHFPHAVPLAPSLSESPPKQAPSTGRFVVPPATPLDESDAEQLPPQSLPPRPNNHKTTAGASVFVSLAGCTAPGQFAGLQTGVTSSTMGASSRVNSQRFAMKGLRESVSPKEHGTRSRSKSSRSSAGSEALVSGKQTTSSASAAAASAPLWDPTRHSLQSPSPVMLSTSTETSAASALVVSDRLGTPVTTSGCEVGVPGASNDSVHRPRPIGTSLITAVASTSFSPLSAPAPDSEEPQPPAETAVQPHIRSPLRRLHLEAHAVRCDHASSGNRRDLYTDSLHVSGSASPAPSTPRNSEENSGDRCKRSNTTAFLDEEKREASAVSTAGACRVSAQLPVLESDVVSPDGADSFHSKDAAVSPRRSSERTVNFLSPDQVEGSLLPQPQRPTSQRLISPSPPRGVAADSNEQNPRDGNTDLKAVSAESIPKDADIDSTSPRRHLVLPQHRSPVAPPRVVIISKDDESPSPARSSLSRSLHSLPSTLSDGHCDDASDDGDDEDGSLWYSEQF | not soluble |
| MSLKDKILTIDVGTGSTRAAIVRIDGAMIGFAQREYEQTTPRAGWSEQAPSLWWQAACDCIREVLYRYPETAAQIAVIGACGQMHGTVLLDDRGELVEDRALLWNDKRSQPQVDAFNAREGWEKWLAHLNNPPAAAWPAFKLAWWRENHPDRWSQLAKVLMPKDYINFMLTGAMATDYSEASCYFLMDSETRSWSSQACETFGLRVDQLPELKLSSDIIGQVTQPAADLTGLPAGIPVVAGTSDMAASLLGSGVYEPGMASDSTGTSTLMTVVSPRPLHHPLVNNLHLANAAWGGFTILDAGGDAVRWARLALADNQITHPQLLQEAAAVPAGAEGLLFLPYLTGERLAEHTNSRAQFFGLQRKHRRGHLFRAVLEGVAFASWRNLRQLQKCGQYPQQMIASGGGARSSLWLEIKASAYNLPILSTRNQENGVTGCGIIAGVGVGLYADFASGVRQTVQFEKLISPDPLLRDYYHACCELFDTLYRQSAALYDRLDALSEGHHHHHH | soluble |
| MGHHHHHHSHGATLIRDRLKTEPFEENSFLEQFMIEKLPEACSIGDGKPFVMNLQDLYMAVTTQEVQVGQKHQGAGDPHTSNSASLQGIDSQCVNQPEQLVSSAPTLSAPEKESTALCRDLSCQRSRGRSQGVSSVNLLWPQLLRMDLENSFQASP | not soluble |
| NTRLLEEIEERRRSERFFHATIDSLTAPVAILNGEGDIVTVNRAWRKFADENGGLHPNHFIGYNYLGLCDNVKGDDAVTASAVARGIRELIAGRINEFHVDYPCHSPDEQRWFQVRVTRLENGSRGRVAVVHENIS | not soluble |
| MKQIESAKNQKVKDWKKLHTKKERTKTNTFLIEGEHLVEEALKSPGIVKEILVKDETRIPSDLETGIQCYMLSEDAFSAVTETETPQQIAAVCHMPEEKLATARKVLLIDAVQDPGNLGTMIRTADAAGLDAVVLGDGTADAFNGKTLRSAQGSHFHIPVVRRNLPSYVDELKAEGVKVYGTALQNGAPYQEIPQSESFALIVGNEGAGVDAALLEKTDLNLYVPLYGQAESLNVAVAAAILVYHLRG | soluble |
| MGHHHHHHSHMSNPRSLEEEKYDMSGARLALILCVTKAREGSEEDLDALEHMFRQLRFESTMKRDPTAEQFQEELEKFQQAIDSREDPVSCAFVVLMAHGREGFLKGEDGEMVKLENLFEALNNKNCQALRAKPKVYIIQACRGEQRDPGETVGGDEIVMVIKDSPQTIPTYTDALHVYSTVEGYIAYRHDQKGSCFIQTLVDVFTKRKGHILELLTEVTRRMAEAELVQEGKARKTNPEIQSTLRKRLYLQ | not soluble |
| MGSDKIHHHHHHMCIMASCLSPNWSVFDIDQSQTLQVAVQEAHARSQPLAIRGGGSKTFYGRQTPACDLLDLGGHRGIIDYAPNELFITLRAGTSLQALEAQLAEAGQMLPFEPPHFGPAATIGGTLACGFSGPRRPYAGSARDMVLGMRILNGQGEILRFGGQVMKNVAGYDVSRLMVGALGTLGVLLEVSLKVLPRPDSTVTLVWPMDPVTAVQRMNDWAGQPLPLSATAYDGEHLYIRLSGTGSAVRAAQTRLGGERLPDAEAAAFWVALREQRNDFFQGDAPLWRLAVAPATPPLPLGDQTLIEWGGGQRWLRGALDATALRQLAAEHGGHATLFRGGNRRGEVFHPLAPPLLAMQQRLKAAFDPRGILNSGRLYATL | not soluble |
| MAHHHHHHSLSSSLANRNIYTVSRLNSEVRLLLENEMGIVWLVGEISNFSAPVSGHWYLTLKDSQAQVKCAMFKGNNRLVNFKPQNGQQVLVKARLSLYEPRGDYQIILESMQPEGDGRLQQQFEQLKMQLAAEGLFAQTRKKPLPENPRCVGIITSRTGAALHDILHVLKRRDPNLPVVIYPTLVQGEEAAIQIAQAIGRANTRAECDVLIVGRGGGSLEDLWCFNHEIVARTIAASEIPIISAVGHEIDVTIADFVADVRAPTPSAAAELVSRDHRHKQQALHQWQAKLASTMRHYLAQQETQFARLQHKLDKQHPQARLERQQQQLDELSLRLEQKMQQRLATQQQRWDRLSHKIELHSPIHLIRQQRFNLIQQEQRINQSIQRYLIQSRHQLALLSEKLDAVSPLATLARGYSVTRTTQGELVRQSAQVKPGDTLVTQLMDGEILSTVNSREG | not soluble |
| MSPQDTCCPPDSWPALKVDYKPKGKLEDIGKGLKAYVVGNGPRAVIALNDVFGIESGHSKEICDAIADKGFTVVFPDVFRGKPLQVSDMSKLFDELPGWAKQFDYEPALRKDVVEVILPYLHDKLGFKSNDQIALAGFCWGAFMLFHLAGDTKLPGGPFACGVSFHPSVQIEGVFQRDPLQLIDRATCPQLLLPSAGEPDYMKEEGDAIKKLRAKPFGASCGVKTFPSMQHGWVNRGDRNDPQVVKEAQEALQLAVDFMMRHTKPKA | not soluble |
| MRKNKLSFKEKAGAEQEECLCFCEGEASREAMFQAPIELPEGFVVDPAEAVANVTWNADSLSCVSDRCLIQTGPEPDEVGVQFAVRLQGTVTLLVSVSPVRNQYGQGDGAVSVIHNAEIDQVVYYSDESDDCPDISDITIENLVVVPPFYGSPLSVTGTIVLVPEPEPVYAFTANPNDQSVSVIDTNTDTVVTTIALPYNPAGIEITPDKSAVFVLHPNNNVISVIDYDTLTVTATILLDQPPRLIRFIPNHEFAYVFTGTAVYVIGIDTLTVDRSIPVEGYDVAIDPNGLFAYVLNFGIVQKVDLTTGEVTGTIERELIVSTIETNWPERYAYVLEQEFFFNYLTVIDLNTFTISSTQELEYEGEYRMFTSGAEVYLYDGFTGNLYSVSPNGAGVIGNVPQSATDYAFTPNGDFLYATRFIEQSIIVYNTDDYSEETVISLGVSPGAITILEHHHHHH | soluble |
| MTEPWIAFPPEVHSAMLNYGAGVGPMLISATQNGELSAQYAEAASEVEELLGVVASEGWQGQAAEAFVAAYMPFLAWLIQASADCVEMAAQQHVVIEAYTAAVELMPTQVELAANQIKLAVLVATNFFGINTIPIAINEAEYVEMWVRAATTMATYSTVSRSALSAMPHTSPPPLILKSDELLPDTGEDSDEDGHNHGGHSHGGHARMIDNFFAEILRGVSAGRIVWDPVNGTLNGLDYDDYVYPGHAIWWLARGLEFFQDGEQFGELLFTNPTGAFQFLLYVVVVDLPTHIAQIATWLGQYPQLLSAALTGVIAHLGAITGLAGLSGLSAIPSAAIPAVVPELTPVAAAPPMLAVAGVGPAVAAPGMLPASAPAPAAAAGATAAGPTPPATGFGGFPPYLVGGGGPGIGFGSGQSAHAKAAASDSAAAESAAQASARAQARAARRGRSAAKARGHRDEFVTMDMGFDAAAPAPEHQPGARASDCGAGPIGFAGTVRKEAVVKAAGLTTLAGDDFGGGPTMPMMPGTWTHDQGVFDEHR | not soluble |
| MNSKCHCVILNDGNFIPVLGFGTALPLECPKSKAKELTKIAIDAGFHHFDSASVYNTEDHVGEAIRSKIADGTVRREDIFYTSKVWCTSLHPELVRASLERSLQKLQFDYVDLYLIHYPMALKPGEENFPVDEHGKLIFDRVDLCATWEAMEKCKDAGLTKSIGVSNFNYRQLEMILNKPGLKYKPVCNQVECHPYLNQMKLLDFCKSKDIVLVAYGVLGTQRDGGWVDQNSPVLLDEPVLGSMAKKYNRTPALIALRYQLQRGIVVLNTSLKEERIKENMQVFEFQLSSEDMKVLDGLNRNMRYIPAAIFKGHPNWPFLDEY | soluble |
| MFKLLKTFQIVYEQMNFSKAATCLYISQPAVSNQIKQLEEELGCSLFLRNGRQDVVPTRQAEVLYNRLLNLADDWQETLTALHQARLPKETCRIAASNTFAVYYLPQLMQHLQTQYATINFVLEMNNSEEVVEKVEKHQVDFGFIEKPLITKGATREEIIQDQLVLAGDPANQNWLVREKDSGVFHYTQQYLEESNQSPTLMTVKNNEMIVKMLELGMGQSLLSRKAITEKIPFQTLGEKYWRSFYFLTRGHLKSSLLQEVKQAIYRFYQTEMNKY | not soluble |
| MRSIYLCRHGESELNLRGRIGGDSGLSARGKQYAYALANFIRSQGISSLKVWTSHMKRTIQTAEALGVPYEQWKALNEIDAGVCEEMTYEEIQEHYPEEFALRDQDKYRYRYPKGESYEDLVQRLEPVIMELERQENVLVICHQAVMRCLLAYFLDKSSDELPYLKCPLHTVLKLTPVAYGCRVESIYLNV | soluble |
| MGSDKIHHHHHHMSSLQISQGTFRLSDTKTLKIDHLSVAAGESWAFVGSNGSGKSALARALAGDLPLLSGQRESHFSRVTRLSFEQLQKLVSDEWQRNNTDLLSPGEEDTGRTTAEIIQDEVKDPARCARLAEQFGISALLDRRFKYLSTGETRKTLLCQALMTDPQLLILDEPFDGLDVNSRQQLAALLADLHSAGITLVLVLNRFDEIPEFVQFAGVLADCTLSETGEKSSLLQQALVAQLAHSEKLDGITLPEPDVPPARHALADSAPRIVLNDGVVSYNDRPVINHLSWTVNPGEHWQIVGPNGAGKSTLLSLVTGDHPQGYSNDLTLFGRRRGSGETIWDIKKHIGYVSSSLHLDYRVSTNVRNVILSGYFDSIGIYQAVSDKQHKLVQQWLDILGIDKRTADAPFHSLSWGQQRLALIVRALVKHPTLLILDEPLQGLDPLNRQLVRRFVDVLIGEGATQLLFVSHHAEDAPDCITHRLAFVPSGDGYTYQLGPVA | not soluble |
| ASIYKNKKSHEQLSALKGSFCRNQFPGQSEVEHLTKVTGLSTREVRKWFSDRRYHCRNLKGSR | soluble |
| MERVAPNGQFKDVGVDQLFFSTTDAQGRIQETNNTFVELSRYTEEELRNAAHNIIRHPFMPGGVFKIMWDKLQRGETFAGYVRNLAHSGETYDVFATVTPIPGTHDYLSVRQRPCHDDHRALAMTIYAEVGDYEAQLRKDGMSAREAAEAGAGLIGDKLRESGFDNFDAYAHAMLPWEVFCRENMSTGLPQREVAGDLGTELAQAHDVHDHLDEWMLRLDELLTTAQQLGEAREELVDSLGQTSSLGDTIDARSASETLQIVQFQLNVWKGMQKIVDSYVVELAELITTLANDTLRERFQISVSRLHTAMLATFLAELIDGTSATANTEHKVALLKATMRDSLEAIDRGAFHRAQLVRSTISCIRTVTSLMESPRSLLTEAIREAQSLNNDELSAAIATELERSERAANNMHQLVATLESTATTPDIAAMLAEL | not soluble |
| MILTEQEKAEVEANRRRYEQHKALGQQQAPKALPPPTPRDGAPIAPESIIHRETVPGGWYYVTKLGRGEAVRIINTSGTSCVSIQAWNALDPSERLNHADTIKVQWAASLRKGRVILSDMGRALLSIIEDTSGAHDTMVGGSNAATNAERYGVGSFRNARDNFVLAAGKLGLDRRDVHPSIALFAPVAVDSQGRFEWHGERRHKGDFVDLRAELDLLIAVSNCPHPLDPSPSYAPGDIELIRYQAPQPASDDLCRTVSLEAKRAFENNAFYLAGAAGRALEHHHHHH | soluble |
